Measurements from publication PMC11661604 (2024).
Residue numbers refer to the chain shown, from its start. Names and notes keep the numbering of the source. Read-outs that look alike come from different tables or passages of the source.

B1: LA1-3-Fc (Fc fusion)
chain: not shown
B2: LA3-Fc (Fc fusion)
chain: MRTCRIHEISCGAHSTQCIPVSWRCDGENDCDSGEDEENCGNI
B3: LA3-Fc Q126A (Fc fusion)
chain: B2 chain with Q17A
B4: LA3-Fc R114A (Fc fusion)
chain: B2 chain with R5A

Key:
[1] = target: T1, native Semliki Forest virus (SFV) virion (Semliki Forest virus); assay: SPR
[2] = target: T1, native Semliki Forest virus (SFV) virion; assay: SPR; remark: listed apart in the source

Binder | Kd [1] | Kd [2]
B1 | 523 nM | 
B2 | 1020 nM | 1170 nM
B3 |  | 11700 nM
B4 |  | 1580 nM
